Results: paper PMC5344332, “A new mode of DNA binding distinguishes Capicua from other HMG-box factors and explains its mutation patterns in cancer”

Legend:
Hs CIC HMG-C1-His [1] = target: T1, Hs CIC HMG-C1-His (Homo sapiens, UniProt Q96RK0-2;Q96RK0-2 188-288;1451-1527); assay: EMSA; 60 mM Hepes pH 7.9, 20 mM Tris-HCl pH 7.9, 300 mM KCl, 5 mM EDTA, 5 mM DTT, 12% glycerol, 1 ug poly(dI-dC), 1 ug BSA, ~1 ng probe in 20 ul; 20 min on ice; 5% native PAGE in 0.5X TBE at 4 C; conditions: protein: recombinant; tags: His; copies: 1;1; label: 32P
Hs CIC HMG-C1-His [2] = target: T1, Hs CIC HMG-C1-His; assay: EMSA; similar affinity to longer probes; 60 mM Hepes pH 7.9, 20 mM Tris-HCl pH 7.9, 300 mM KCl, 5 mM EDTA, 5 mM DTT, 12% glycerol, 1 ug poly(dI-dC), 1 ug BSA, ~1 ng probe in 20 ul; 20 min on ice; 5% native PAGE in 0.5X TBE at 4 C; conditions: protein: recombinant; tags: His; copies: 1;1; label: 32P

T1 sequence (Q96RK0 1097-1197, chain 1 of 2): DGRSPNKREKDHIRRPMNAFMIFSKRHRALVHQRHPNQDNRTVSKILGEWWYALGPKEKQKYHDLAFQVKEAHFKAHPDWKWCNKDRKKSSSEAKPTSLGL
T1 sequence (Q96RK0 2360-2436, chain 2 of 2): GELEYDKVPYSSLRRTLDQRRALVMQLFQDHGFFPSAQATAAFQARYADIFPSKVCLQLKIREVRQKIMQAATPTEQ

B1: CBS syn (dsDNA)
DNA 1: GGGAATTAAGTTGAATGAATAGGCTGGGCC
DNA 2: GGCCCAGCCTATTCATTCAACTTAATTCCC
binding result (Hs CIC HMG-C1-His [1]): binds

B2: ETV5 18-bp CBS (dsDNA)
DNA 1: GGTTATGAATGAAAAACC
DNA 2: GGTTTTTCATTCATAACC
binding result (Hs CIC HMG-C1-His [2]): binds
